Results from patent US20250163137A1.

Legend:
[1] = target: human FDP (fibrin-fibrinogen degradation products) (human) (UniProt P02671); test: comparison drawn from Tables 3 and 4 (kinetic analysis and affinity test)
[2] = target: human FDP (fibrin-fibrinogen degradation products) (human) (UniProt P02671); test: affinity test (RU read-out; instrument not named)
[3] = target: human FDP (fibrin-fibrinogen degradation products) (human) (UniProt P02671); test: kinetic analysis, 1:1 binding fit (RU read-out; instrument not named)

B1: mAb 14G12-5 (antibody, V domains shown)
VH: EVQLVESGGGLVKPGGSLKLSCAASGFAFNAYDMSWVRQTPEKRLEWVAYISSSGDYTYYPDTVKGRFTVSRDNAKSTLYLHMGSLKSEDTAMYYCAVYYHYDEGLDYWGQGTALTVSS
VL: QIVLIQSPAIMSASPGEKVTMTCSASSSVNYMHWYQQKSGTSPKRWIYDTSKLASGVPARFSGSGSGTSYSLTISSMEAEDAATYYCQQWSSNPPTFGGGTKLEIKR
fold binding capacity against canine FDP [1]: 10 fold | Kd [2]: 157 nM | Kd [3]: 16.5 nM | koff [3]: 0.00225 s⁻¹ | kon [3]: 136000 M⁻¹ s⁻¹
